From patent publication US20200317768A1 (published 2020)
Where a chain is given by its changes, count along the chain named.

T1: Cynomolgus monkey latent myostatin (cynomolgus monkey, UniProt Q95J86 25-266; Q95J86 267-375)
T1 construct: Latent form = complex of two propeptides and the mature dimer; also called Cyno latent myostatin
T1 sequence 1: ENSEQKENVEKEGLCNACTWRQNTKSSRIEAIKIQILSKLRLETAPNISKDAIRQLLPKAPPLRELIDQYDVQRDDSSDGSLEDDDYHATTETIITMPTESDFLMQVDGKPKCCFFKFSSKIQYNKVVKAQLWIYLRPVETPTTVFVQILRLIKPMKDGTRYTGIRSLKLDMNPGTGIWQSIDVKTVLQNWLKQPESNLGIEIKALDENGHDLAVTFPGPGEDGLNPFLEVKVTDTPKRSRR
T1 sequence 2: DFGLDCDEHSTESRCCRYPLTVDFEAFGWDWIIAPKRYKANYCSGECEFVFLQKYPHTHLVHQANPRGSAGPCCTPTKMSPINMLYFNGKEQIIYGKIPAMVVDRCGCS

T2: Mouse latent myostatin (mouse, UniProt O08689 26-267; O08689 268-376)
T2 construct: Latent form = complex of two propeptides and the mature dimer
T2 sequence 1: T1 sequence 1 with N2G, Q5R, K6E, T19A, K25R, S26Y, K59R, V107A, E140K, N173S
T2 sequence 2: T1 sequence 2

T3: Human latent myostatin (human, UniProt O14793 25-266; O14793 267-375)
T3 construct: also called human myostatin latent form
T3 sequence 1: T1 sequence 1 with A52V
T3 sequence 2: T1 sequence 2

T4: cynomolgus monkey FcγRIIa2 extracellular domain, His-tagged (cynomolgus monkey)
T4 construct: also called cyno FcγRIIa2; FcgRIIa2; not shown: C-terminal His-tag
T4 chain: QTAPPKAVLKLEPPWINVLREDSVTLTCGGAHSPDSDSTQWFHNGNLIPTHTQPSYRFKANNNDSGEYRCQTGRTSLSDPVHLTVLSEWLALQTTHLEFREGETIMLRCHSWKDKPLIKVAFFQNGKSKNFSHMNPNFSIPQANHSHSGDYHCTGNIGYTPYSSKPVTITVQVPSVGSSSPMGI

T5: cynomolgus monkey FcγRIIa1 extracellular domain, His-tagged (cynomolgus monkey)
T5 construct: also called cyno FcγRIIa1; FcgRIIa1; not shown: C-terminal His-tag
T5 chain: T4 chain with T95P, A121T, K127I, S128A, N130K, N135D, Q142R

T6: cynomolgus monkey FcγRIIIaS extracellular domain, His-tagged (cynomolgus monkey, UniProt Q8SPW2 21-206 at identity 1.00))
T6 construct: also called cyno FcγRIIIaS; FcgRIIIaS; not shown: C-terminal His-tag
T6 chain: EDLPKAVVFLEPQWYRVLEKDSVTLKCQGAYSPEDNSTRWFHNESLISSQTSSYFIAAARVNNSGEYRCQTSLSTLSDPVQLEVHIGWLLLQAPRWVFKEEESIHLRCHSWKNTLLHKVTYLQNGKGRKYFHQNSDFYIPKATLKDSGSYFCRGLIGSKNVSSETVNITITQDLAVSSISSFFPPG

T7: human FcγRIIaH extracellular domain, His-tagged (human, UniProt P12318 34-217)
T7 construct: also called human FcγRIIa (type H); FcgRIIaH; not shown: C-terminal His-tag
T7 sequence: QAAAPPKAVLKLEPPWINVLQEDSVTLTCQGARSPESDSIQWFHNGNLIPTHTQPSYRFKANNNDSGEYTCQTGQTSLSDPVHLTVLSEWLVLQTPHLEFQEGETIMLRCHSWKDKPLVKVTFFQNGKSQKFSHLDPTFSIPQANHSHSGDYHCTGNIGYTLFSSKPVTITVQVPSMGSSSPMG

T8: human FcγRIIb extracellular domain, His-tagged (human, UniProt P31994 43-217)
T8 construct: also called FcgRIIb (human); not shown: C-terminal His-tag
T8 sequence: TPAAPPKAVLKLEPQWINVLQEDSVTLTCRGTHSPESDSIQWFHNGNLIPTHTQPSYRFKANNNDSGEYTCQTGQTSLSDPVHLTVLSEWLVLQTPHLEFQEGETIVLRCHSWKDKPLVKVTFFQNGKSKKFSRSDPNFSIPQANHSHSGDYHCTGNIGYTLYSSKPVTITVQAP

T9: cynomolgus monkey FcγRIIb extracellular domain, His-tagged (cynomolgus monkey)
T9 construct: also called cyno FcγRIIb; cynoFcγRIIb; not shown: C-terminal His-tag
T9 chain: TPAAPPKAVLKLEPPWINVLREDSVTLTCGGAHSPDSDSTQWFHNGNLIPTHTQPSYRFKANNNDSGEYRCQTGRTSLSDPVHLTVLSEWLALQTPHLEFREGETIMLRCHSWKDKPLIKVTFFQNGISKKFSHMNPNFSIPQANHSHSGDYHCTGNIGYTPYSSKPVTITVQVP

T10: human FcγRIIaR extracellular domain, His-tagged (human, UniProt P12318 34-217)
T10 construct: also called human FcγRIIa (type R); FcgRIIaR; not shown: C-terminal His-tag
T10 chain: T7 sequence with H134R

T11: cynomolgus monkey FcγRIIa3 extracellular domain, His-tagged (cynomolgus monkey)
T11 construct: also called cyno FcγRIIa3; FcgRIIa3; not shown: C-terminal His-tag
T11 chain: T4 chain with K127I, N130K, H133P, Q142R

B1: MS_M103205H1186-SG1/M103202L889-SK1 (antibody, human IgG1, kappa, V domains shown)
VH: QVTLKESGPVLVKPTETLTLTCTVSGIDLSHDDISWVRQAPGKGLEWVGIISYAGKKYYASWAKGRLTISKDTSKNQVVLTMTNMDPVDTATYYCARGVPAYSHGGDLWGQGTLVTVSS
VL: DIVMTQSPATLSLSPGERATLSCTSSQSVYHANWLSWFQQKPGQPPKLLIYWASTLAYGVPSRFSGSGSGTDFTLTISSLQPEDAATYYCAGGYGGGRYAFGQGTKVEIKR
notes: also called MS1032LO18-SG1
B2: MS_M103245H795-SG1/M103202L1045-SK1 (antibody, human IgG1, kappa, V domains shown)
VH: B1 VH with T23K, G49S, K56S, K57T
VL: B1 VL with S25T, A32E
notes: also called MS1032LO21-SG1
B3: M103205H795-MY449 / M103202L889-SK1 (antibody, human IgG1, kappa)
heavy: QVTLKESGPVLVKPTETLTLTCTVSGIDLSHDDISWVRQAPGKGLEWVGIISYAGSTYYASWAKGRLTISKDTSKNQVVLTMTNMDPVDTATYYCARGVPAYSHGGDLWGQGTLVTVSSASTKGPSVFPLAPSSKSTSGGTAALGCLVKDYFPEPVTVSWNSGALTSGVHTFPAVLQSSGLYSLSSVVTVPSSSLGTQTYICNVNHKPSNTKVDKKVEPKSCDKTHTCPPCPALELLTGPSVFLFPPKPKDTLMISRTPEVTCVVVDVSDEDPEVKFNWYVDGVEVHNAKTKPREEQYNSTYRVVSVLTVLHQDWLNGKEYKCKVSNKALPKPIEKTISKAKGQPREPQVYTLPPSREEMTKNQVSLTCLVKGFYPSDIAVEWESNGQPENNYKTTPPVLDSDGSFFLYSKLTVDKSRWQQGNVFSCSVMHEALHNHYTQKSLSLSP
light: DIVMTQSPATLSLSPGERATLSCTSSQSVYHANWLSWFQQKPGQPPKLLIYWASTLAYGVPSRFSGSGSGTDFTLTISSLQPEDAATYYCAGGYGGGRYAFGQGTKVEIKRTVAAPSVFIFPPSDEQLKSGTASVVCLLNNFYPREAKVQWKVDNALQSGNSQESVTEQDSKDSTYSLSSTLTLSKADYEKHKVYACEVTHQGLSSPVTKSFNRGEC

Experiments:
[1] = target: T1, Cynomolgus monkey latent myostatin; test: SPR 37C; KD pH 5.8 / KD pH 7.4
Protocol: (§1) ProA/G (Pierce) was immobilized onto all flow cells of a CM4 chip using an amine coupling kit (GE Healthcare). All antibodies and analytes were prepared in ACES pH7.4 or pH5.8 buffer containing 20 mM ACES, 150 mM NaCl, 1.2 mM CaCl₂, 0.05% TWEEN®) 20, 0.005% NaN₃. […] Human, cyno, and mouse latent myostatin was injected at 3.125 to 50 nM prepared by two-fold serial dilution, followed by dissociation. The sensor surface was regenerated each cycle with 10 mM Glycine HCl pH1.5. Binding affinity was determined by processing and fitting the data to a 1:1 binding model using BIACORE® T200 Evaluation software, version 2.0 (GE Healthcare).

[2] = target: T1, Cynomolgus monkey latent myostatin; test: SPR (BIACORE T200) 37C, pH 7.4, antibody captured by ProA/G
Protocol: as §1

Mouse latent myostatin = target: T2, Mouse latent myostatin; test: as above
Protocol: as §1

Human latent myostatin [3] = target: T3, Human latent myostatin; test: as above
Protocol: as §1

[4] = target: T1, Cynomolgus monkey latent myostatin; test: SPR (BIACORE T200) 37C, pH 5.8, antibody captured by ProA/G
Protocol: as §1

Human latent myostatin [5] = target: T3, Human latent myostatin; test: SPR 37C; KD pH 5.8 / KD pH 7.4
Protocol: as §1

Human latent myostatin [6] = target: T3, Human latent myostatin; test: SPR (BIACORE T200) 37C, pH 5.8, antibody captured by ProA/G
Protocol: as §1

[7] = target: T4, cynomolgus monkey FcγRIIa2 …; test: SPR (BIACORE), 25 C, antibody captured, FcgR as analyte; KD of SG1 divided by KD of variant;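 note: relative to parent M103205H795-SG1 carrying the SG1 human heavy chain constant region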
Protocol: (§2) The kinetic analysis of interactions between these antibodies and FcγR was carried out using BIACORE® T200 or BIACORE® 4000 (GE Healthcare). HBS-EP+ (GE Healthcare) was used as the running buffer, and the measurement temperature was set to 25° C. A chip produced by immobilizing Protein A. Protein A/G or mouse anti-human IgG kappa light chain (BD Biosciences) onto a Series S Sensor Chip CM4 or CM5 (GE Healthcare) by the amine-coupling method was used. […] After the measurement, the antibody captured on the chip was washed off by allowing reaction with 10 mM glycine-HCl, pH1.5 and 25 mM NaOH so that the chip was regenerated and used repeatedly. The sensorgrams obtained as measurement results were analyzed by the 1:1 Langmuir binding model using the BIACORE® Evaluation Software to calculate the binding rate constant ka (L/mol/s) and dissociation rate constant kd (l/s), and the dissociation constant KD (mol/L) was calculated from these values. […] Regarding such interactions, KD values were calculated using the following 1:1 binding model described in BIACORE® T100 Software Handbook BR1006-48 Edition AE.

[8] = target: T5, cynomolgus monkey FcγRIIa1 …; test: as above
Protocol: as §2

[9] = target: T6, cynomolgus monkey FcγRIIIaS …; test: as above
Protocol: as §2

[10] = target: T7, human FcγRIIaH extracellular domain, …; test: as above
Protocol: as §2

[11] = target: T12, human FcγRIIIaV extracellular domain, His-tagged (human, UniProt P08637 17-208); test: as above
T12 construct: also called human FcγRIIIa (V158); FcgRIIIaV; not shown: C-terminal His-tag
T12 sequence (P08637 17-208 F176V): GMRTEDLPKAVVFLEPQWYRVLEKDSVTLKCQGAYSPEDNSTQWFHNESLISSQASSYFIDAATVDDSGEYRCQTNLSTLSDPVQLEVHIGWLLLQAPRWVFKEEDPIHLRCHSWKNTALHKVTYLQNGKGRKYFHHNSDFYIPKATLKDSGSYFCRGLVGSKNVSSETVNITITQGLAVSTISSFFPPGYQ
Protocol: as §2

[12] = target: T8, human FcγRIIb extracellular domain, …; test: as above
Protocol: as §2

[13] = target: T9, cynomolgus monkey FcγRIIb extracellular …; test: as above
Protocol: as §2

[14] = target: T10, human FcγRIIaR extracellular domain, …; test: as above
Protocol: as §2

[15] = target: T11, cynomolgus monkey FcγRIIa3 …; test: as above
Protocol: as §2

Row | Binder | ratio of KD at pH 5.8/pH 7.4 [1] | Kd [2] [nM] | Kd (Mouse latent myostatin) [nM] | Kd (Human latent myostatin [3]) [nM] | Kd [4] [nM] | ratio of KD at pH 5.8/pH 7.4 (Human latent myostatin [5]) | Kd (Human latent myostatin [6]) [nM] | KD fold (SG1 = 1) [7] [fold] | KD fold (SG1 = 1) [8] [fold] | KD fold (SG1 = 1) [9] [fold] | KD fold (SG1 = 1) [10] [fold] | KD fold (SG1 = 1) [11] [fold] | KD fold (SG1 = 1) [12] [fold] | KD fold (SG1 = 1) [13] [fold] | KD fold (SG1 = 1) [14] [fold] | KD fold (SG1 = 1) [15] [fold]
1 | B1 | 229 | 0.354 | 0.272 | 0.329 | 80.9 | – | – | – | – | – | – | – | – | – | – | –
2 | B2 | 100 | 0.309 | – | 0.257 | 31 | 204 | 52.3 | – | – | – | – | – | – | – | – | –
3 | B3 | – | – | – | – | – | – | – | 5.4 | 3.7 | 0.4 | 7 | 0.3 | 15.9 | 7.8 | 14.9 | 11.3
